The record followed here is patent US20040248211A1, “ICAM-related protein” (priority 1992, published 2004).

Residue numbers refer to the chain shown, from its start.

The target in experiment [1] is T1, soluble baculovirus produced human ICAM-R (Homo sapiens, UniProt P32942).
T1 sequence (P32942 30-485 limits assumed): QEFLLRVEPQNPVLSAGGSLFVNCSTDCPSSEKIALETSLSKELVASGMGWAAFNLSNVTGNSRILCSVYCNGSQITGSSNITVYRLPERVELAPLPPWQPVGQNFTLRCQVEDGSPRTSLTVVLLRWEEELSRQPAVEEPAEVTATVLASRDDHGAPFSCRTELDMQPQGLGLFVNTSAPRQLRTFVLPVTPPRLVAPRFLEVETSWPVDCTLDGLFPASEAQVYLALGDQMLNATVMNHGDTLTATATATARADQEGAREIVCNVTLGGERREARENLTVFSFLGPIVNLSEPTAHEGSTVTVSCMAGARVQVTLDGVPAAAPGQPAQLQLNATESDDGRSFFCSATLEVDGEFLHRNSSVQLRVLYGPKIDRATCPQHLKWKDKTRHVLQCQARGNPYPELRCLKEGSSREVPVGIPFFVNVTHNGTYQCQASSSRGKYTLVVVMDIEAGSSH
Briefly: ELISA binding of recombinant ICR-1.1 antibodies. A general note: ELISA stands for enzyme-linked immunosorbent assay.

Experiment [2] deals with JY cells (LFA-1) binding to ICAM-R/IgG. Description: JY cell binding to plate-bound ICAM-R/IgG chimeras. The experiment is classed as cell-based, human. As for the experimental part: The binding of the lymphoblastoid cell line JY, which expresses LFA-1, to wild type ICAM-R/IgG chimera was examined in the presence and absence of LFA-1 specific antibodies or antibodies specific for either domain 1 or 2 of ICAM-R. ICAM-R chimeras were diluted to 10 μg/ml in 0.1M Na-carbonate/bicarbonate buffer pH 9.6 and used to coat triplicate wells (50 μl/well) of an Immulon 4 96-well plate (Dynatech) overnight at 4° C. Wells were washed three times in PBS and blocked with 1% BSA (in PBS) for 1 hour at 37° C. JY cells were labeled with the fluorescent dye Calcein (Moleculat Probes, Eugene, Oreg.) at 8 μg/ml at 37° C. in serum free RPMI for 20 minutes. Cells were washed with RPMI and resuspended in binding buffer (0.2% HSA in RPMI. Approximately 1×10^5 cells were added to each well containing the binding buffer with or without antibody (20 μg/ml of ICR-2.1, ICR-1.1, ICR-3.1, ICR-5.1, ICR-7.1, ICR-8.1, ICR-4.2, ICR-6.2, ICR-9.2, TS1/22 or 60.3) so that the final volume was 0.35 ml. Plates were incubated at 37° C. in the dark for 45 minutes and input fluorescence was quantitated with a fluorescence reader (Millipore) in a 96-well format. Unbound cells were removed by inverting the plate in 0.1% BSA in PBS for 20 minutes. Bound cells were quantitated by measuring the remaining fluorescence and presented as percent input minus background binding to wells coated with BSA alone.

Experiment [3] has as its target T2, baculovirus-produced soluble human ICAM-R (Homo sapiens, UniProt P32942).
T2 sequence (P32942 30-485 limits assumed): T1 sequence (P32942 30-485 limits assumed)
Briefly: ELISA binding of recombinant ICR-8.1 antibodies. The following applies: humanized/chimeric ICR-8.1 chain combinations, human IgG4/kappa.

Another experiment deals with SKW3 cells. Briefly: Adhesion of PMA-activated SKW3 cells to plate-bound protein. The experiment is classed as cell-based, human. The following applies: PMA-treated cells. As for the experimental part:
The partially purified shICAM-R protein was assayed for binding to SKW3 cells that were pretreated with phorbol ester as described in Example 7 to activate LFA-1-dependent adhesion. The ICAM-R protein was coated onto 96-well Immulon 4 (Dynatech) plates after adjusting the lectin eluate to 25 mM carbonate pH 9.6 and incubated overnight at 4° C. The plates were washed two times with PBS, blocked for 30 minutes at 37° C. with 200 ul/well PBS, 1% BSA, and washed again with PBS before adding cells. SKW3 cells were washed in serum-free RPMI (Gibco), labelled with Calcein-AM (Molecular Probes), and stimulated with PMA. Cells were then added to the plates and incubated for 1 hour at 37° C. The plates were inverted in prewarmed PBS, 1% BSA and were incubated for 30 minutes. The plates were then removed and half of the contents of each well was aspriated. The plates were then scanned with a fluorescence microscope and an automated fluorescence reader.
Peak fractions from wtHis6, E37His6 and mock transfectants were concentrated about 6.5 fold using Centricon 30 (Amicon) centrifugation units. The resultant concentrates were adjusted to equal vols. (0.34 ml) using PBS-D. Control soluble ICAM-R (15 ug/ml) (Example 9) in carbonate buffer pH 9.6 or in buffer D with 40 mM imidazole were made up. […]

B1: HuVK: humanized ICR-1.1 kappa chain V region (antibody, V domains shown)
VL: GARCDIQMTQSPSSLSASVGDRVTITCSASSSVSYIYWYQQKPGKAPKLLIYLTSNLASGVPSRFSGSGSGTDFTLTISSLQPEDFATYYCQQWKSIPLTFGQGTKLEIK
For the molecule B1, in experiment [1], the “deficit in binding compared with murine progenitor chain, ICR-1.1 versions” value was found to be 2 fold.

B2: T38/A: ICAM-R/IgG chimera, Thr38 changed to Ala (protein)
chain: T1 sequence (P32942 30-485 limits assumed) with T38A, R86G, D114G, P328T, G453F
modifications: left off: a dimerising Fc or GST
notes: ICAM-R/IgG chimera, Thr38 changed to Ala
B2: the “reduction in JY cell adhesion to variant ICAM-R/IgG chimera” value in experiment [2] is 70-80%.

B3: L121/P: ICAM-R/IgG chimera with domain 2 mutation L121/P (protein, UniProt P32942 30-485, looked up, variant L121P)
extracellular domain: T1 sequence (P32942 30-485 limits assumed) with L121P
modifications: extracellular domain fused to IgG Fc
notes: ICAM-R/IgG chimera with domain 2 mutation L121/P
Regarding B3, the “LFA-1 mediated JY cell adhesion to variant ICAM-R/IgG chimera” value in experiment [2] (chimera coated at 10 μg/ml) was “wild type levels of LFA-1 mediated binding”.

B4: MuVHVS/MuVK: chimeric ICR-8.1: murine VH with Val2, Ser7 and murine VK, human IgG4/kappa constant regions (antibody, V domains shown)
VH: EVQLQQSGPELVKPGASVKISCKASGYSFTDCIILWVKQSHGKGLEWIGKINPYFGTTTYNLKFKGKATLTVDKSSSTAHMQLNSLTSEDSAVYYCARKEAYPDAMDYWGQGTSVTVSS
VL: DAVMTQTPLSLPVSLGDQASISCRSSQSLVHSNGDTYLHWYLQKPGQSPQLLIYKVSNRFSGVPDRFSGSGSGTDFTLKLSRVEAEDLGVYFCSQSTHVPYTFGGGTKLEIK
For B4, the “binding to ICAM-R (ELISA), recombinant ICR-8.1 antibodies” value (from here on “binding to ICAM-R (ELISA)”) in experiment [3] is reported as “equivalence in binding to ICAM-R”.

B5: HuVH/MuVK: ICR-8.1 humanized VH (Ala71) with murine VK (antibody, V domains shown)
VH: QVQLVQSGAEVKKPGASVKVSCKASGYTFTDCIILWVRQAPGQGLEWMGKINPYFGTTTYNLKFKGRVTITADTSTSTAYMELSSLRSEDTAVYYCARKEAYPDAMDYWGQGTLVTVSS
VL: B4 VL
Turning to B5, the “binding to ICAM-R (ELISA)” value in experiment [3] is on record as “equivalence in binding to ICAM-R”.

B6: miJuVH/MuVK: ICR-8.1 miHuVH (Ala60, Gln61, Gln64) heavy chain with murine VK (antibody, V domains shown)
VH: B5 VH with N61A, L62Q, K65Q
VL: B4 VL
Consider B6, for which, in experiment [3], the “binding to ICAM-R (ELISA)” value is reported as “equivalence in binding to ICAM-R”.

B7: HuVHV/MuVK: ICR-8.1 humanized VH with Thr28 and Val71, murine VK (antibody, V domains shown)
VH: B5 VH with A72V
VL: B4 VL
With B7, the “binding to ICAM-R (ELISA)” value in experiment [3] was “equivalence in binding to ICAM-R”.

B8: MuVHVST/MuVK: chimeric ICR-8.1, MuVHVS heavy chain with Thr28, murine VK (antibody, V domains shown)
VH: B4 VH with S28T
VL: B4 VL
As to B8, the “binding to ICAM-R (ELISA)” value in experiment [3] was “equivalence in binding to ICAM-R”.

B9: wtHis6: wild type histidine tagged soluble ICAM-R extracellular domain (protein)
chain: QEFLLRVEPQNPVLSAGGSLFVNCSTDCPSSEKIALETSLSKELVASGMGWAAFNLSNVTGNSRILCSVYCNGSQITGSSNITVYGLPERVELAPLPPWQPVGQNFTLRCQVEGGSPRTSLTVVLLRWEEELSRQPAVEEPAEVTATVLASRDDHGAPFSCRTELDMQPQGLGLFVNTSAPRQLRTFVLPVTPPRLVAPRFLEVETSWPVDCTLDGLFPASEAQVYLALGDQMLNATVMNHGDTLTATATATARADQEGAREIVCNVTLGGERREARENLTVFSFLGPIVNLSEPTAHEGSTVTVSCMAGARVQVTLDGVPAAAPGQTAQLQLNATESDDGRSFFCSATLEVDGEFLHRNSSVQLRVLYGPKIDRATCPQHLKWKDKTRHVLQCQARGNPYPELRCLKEGSSREVPVGIPFFVNVTHNGTYQCQASSSRGKYTLVVVMDIEAFSSGPGHHHHHH
Regarding B9, the “adhesion of SKW3 cells to plate bound protein” value in the experiment on SKW3 cells is reported as “functions as an adhesive ligand for SKW3 cells”.

B10: HuVH: humanized ICR-1.1 heavy chain V region (Met48) (antibody, V domains shown)
VH: GVQSQVQLVQSGAEVKKPGASVKVSCKASGYTFTVYWMHWVRQAPGQGLEWMGYINPNTDYTEYNQRFQKRVTITADTSTSTAYMELSSLRSEDTAVYYCARWGGNSYGLDYWGQGTLVTVSS
Consider B10, for which the “deficit in binding compared with murine progenitor chain, ICR-1.1 versions” value in experiment [1] is 2-3 fold.
